Measurements published in patent US20150299314A1 (TORAY INDUSTRIES, published 2015).

Assays:
[1] = molecular target: T1, CAPRIN-1 protein expressed on the cell surface of human cancer cells (human, UniProt Q14444 2-709); assay: flow cytometry, TGBC14TKB cells, culture supernatant, isotype control antibody as control
T1 construct: whole, on cells; Target of all flow cytometry and ADCC assays; the cell line is named under assay; also called human CAPRIN-1; cytoplasmic- and proliferation-associated protein 1
T1 sequence (looked up): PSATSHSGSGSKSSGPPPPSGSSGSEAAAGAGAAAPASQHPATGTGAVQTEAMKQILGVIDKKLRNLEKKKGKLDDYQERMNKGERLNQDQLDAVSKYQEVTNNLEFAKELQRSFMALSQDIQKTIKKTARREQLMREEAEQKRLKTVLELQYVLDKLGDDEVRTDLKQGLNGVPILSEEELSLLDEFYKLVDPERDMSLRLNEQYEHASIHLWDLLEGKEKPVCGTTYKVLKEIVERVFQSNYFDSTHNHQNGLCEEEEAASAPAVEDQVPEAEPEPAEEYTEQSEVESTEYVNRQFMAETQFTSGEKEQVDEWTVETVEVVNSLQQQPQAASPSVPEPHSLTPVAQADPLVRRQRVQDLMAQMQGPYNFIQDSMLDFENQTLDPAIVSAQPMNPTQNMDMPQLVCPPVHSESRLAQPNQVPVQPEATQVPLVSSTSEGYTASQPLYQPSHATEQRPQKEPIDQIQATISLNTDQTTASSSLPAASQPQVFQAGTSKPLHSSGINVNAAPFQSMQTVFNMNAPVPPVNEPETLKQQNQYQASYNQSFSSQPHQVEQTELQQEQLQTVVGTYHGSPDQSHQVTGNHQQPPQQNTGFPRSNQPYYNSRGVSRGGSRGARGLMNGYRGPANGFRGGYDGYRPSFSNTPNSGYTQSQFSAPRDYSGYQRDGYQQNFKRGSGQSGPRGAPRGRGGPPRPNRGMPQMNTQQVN
Experimental: Subsequently, a gallbladder cell line TGBC14TKB, which was confirmed to express a CAPRIN-1 gene, was investigated for whether or not a CAPRIN-1 protein is expressed on the surfaces of these cells. 1×10⁶ cells of TGBC14TKB were centrifuged with a 1.5-mL micro centrifugation tube. To the cells was added the culture supernatant (100 μL) containing any of anti-CAPRIN-1 mouse monoclonal antibodies #1 to #22 reacting to cancer cell surface produced in Example 4 and anti-CAPRIN-1 mouse-chicken chimeric antibodies #1 to #3 produced in the above (2), followed by being left to stand on ice for 1 hour. After washing with PBS, the cells were suspended in a FITC-labeled goat anti-mouse IgG antibody (manufactured by life technologies) diluted by 500-fold with PBS containing 0.1% FBS, followed by being left to stand on ice for 1 hour. After washing with PBS, the fluorescence intensity was measured with FACS Calibur available from Becton, Dickinson and Company. Separately, as a control, the same procedure as in above was performed using an iso-type control antibody, instead of the culture supernatants containing the anti-CAPRIN-1 mouse monoclonal antibodies #1 to #22 and the mouse-chicken chimeric antibodies #1 to #3. As a result, the fluorescence intensity in the cells to which any of the monoclonal antibodies #1 to #22 and the mouse-chicken chimeric antibodies #1 to #3 was added was 20% or more higher than that in the control in every case. Specifically, in the case of using mouse-chicken chimeric antibody #1, the fluorescence intensity was enhanced by 200% or more. […] The rate of increase in the fluorescence intensity is represented by the rate of increase in the mean fluorescence intensity (MFI value) in each cell and is calculated by the following calculation formula: […]

[2] = molecular target: T2, polypeptide set forth in SEQ ID NO: 266 (human); assay: ELISA on immobilized synthetic CAPRIN-1 peptides, culture supernatant
T2 construct: Identified from ELISA on 93 synthetic peptides of 12 to 16 amino acids of human CAPRIN-1
T2 peptide: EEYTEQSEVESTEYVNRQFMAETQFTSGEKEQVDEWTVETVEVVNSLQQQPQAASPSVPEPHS

[3] = molecular target: T3, peptide set forth in SEQ ID NO: 267 (human); assay: as above
T3 peptide: QQPQAASPSVPE

[4] = molecular target: T1, CAPRIN-1 protein expressed on the cell …; assay: cell-based or functional assay
[5] = molecular target: T4, polypeptide comprising the amino acid sequence set forth in SEQ ID NO: 269 (human); assay: ELISA on immobilized synthetic CAPRIN-1 peptides, culture supernatant
T4 peptide: PPVNEPETLKQQNQYQAS

[6] = molecular target: T5, peptide set forth in SEQ ID NO: 268 (human); assay: as above
T5 peptide: FTSGEKEQVDEW

[7] = molecular target: T6, polypeptide set forth in SEQ ID NO: 430 (human); assay: ELISA on 93 immobilized synthetic peptides of human CAPRIN-1, purified antibody 0.1 ug/mL
T6 peptide: ATQVPLVSSTSEGYTA
Experimental: Candidate peptides (93 peptides) each consisting of 12 to 16 amino acids of the amino acid sequence of the human CAPRIN-1 protein were synthesized and were each dissolved at a concentration of 1 mg/mL in DMSO. Each peptide was dissolved at a concentration of 30 μg/mL in a 0.1 M sodium carbonate buffer (pH 9.6). The solution was added to a 96-well plate (manufactured by Nunc, Product No. 436006) at 100 μL per well, followed by being left to stand at 4° C. overnight. The solution was removed, and 200 μL of 10 mM ethanolamine/0.1 M sodium carbonate buffer (pH 9.6) was added to each well, followed by being left to stand at room temperature for 1 hour. The solution was removed, and each well was washed with PBS containing 0.5% Tween 20 (PBST) twice to prepare a peptide-immobilized plate. For confirmation, this plate was also provided with a well to which the CAPRIN-1 protein was immobilized in accordance with the method described above. Rabbit anti-CAPRIN-1 monoclonal antibody #1 purified to a concentration of 0.1 ug/mL by a usual method was added to the plate at an amount of 50 μL per well, followed by shaking at room temperature for 1 hour. The solution was removed, and each well was washed with PBST three times. […] The absorbance was measured at 450 nm and 595 nm with an absorption spectrometer. […]

[8] = molecular target: T6, polypeptide set forth in SEQ ID NO: 430; assay: ELISA as in Example 13(1), purified antibody
[9] = molecular target: T7, polypeptide set forth in SEQ ID NO: 431 (human); assay: ELISA on immobilized synthetic CAPRIN-1 peptides, culture supernatant
T7 peptide: VERVFQSNYFDSTHNH

[10] = molecular target: T1, CAPRIN-1 protein expressed on the cell …; assay: flow cytometry, TGBC14TKB cells, antibody 20 ug/mL, secondary antibody only as control
Experimental: (§1) A human gallbladder cancer cell line TGBC14TKB was investigated whether or not a CAPRIN-1 protein is expressed on the cell surface. 5×10⁵ cells of the gallbladder cancer cell line were centrifuged with a 1.5-mL micro centrifugation tube. The cells were subjected to reaction with each mouse anti-CAPRIN-1 antibody at a final concentration of 20 μg/mL, followed by being left to stand on ice for 1 hour. After washing with PBS, the cells were reacted with a 100-fold diluted Alexa488-labeled goat anti-mouse IgG antibody (manufactured by life technologies), followed by being left to stand on ice for […]. After washing with PBS, the fluorescence intensity was measured with FACS Calibur available from Becton, Dickinson and Company. As a negative control, only the secondary antibody was used in the reaction.
as §1, with “cell surface using mouse anti-CAPRIN-1 monoclonal antibodies #30 to #36.” for “cell surface.”, “of TGBC14TKB” for “of the gallbladder cancer cell line”, “each of” for “each”, “anti-CAPRIN-1 antibodies #30 to #36” for “anti-CAPRIN-1 antibody”, “Company. Separately, the cells were subjected to reaction with” for “Company. As a negative control,”, “antibody as a negative control.” for “antibody was used in the reaction.”

B1: mouse monoclonal antibody #4 (antibody, V domains shown)
VH: GAELVRSGASVKMSCKASGYSFTDYNMYWVKQTPGQGLEWIGYIYPGNGGTNYNQKFKGKATLTADTSSSTAYMQISSLTSEDSAVYFCARDYDDGGYAMDYWGQGTTVTVSS
VL: DIQMTQSPASLSASVGETVTITCRASGNIHNYLTWYQQKQGKSPQLLVYNAKTLADGVPSRFSGSGSGTQYSLKINRLQPEDFGSYYCQHFWNIPWTFGGGTKLNSR
notes: mouse hybridoma antibody; also called anti-CAPRIN-1 mouse monoclonal antibody #4; anti-CAPRIN-1 monoclonal antibody #4
rate of increase in mean fluorescence intensity over control [1]: ≥ 20%
binding result [2]: binds
binding result [3]: binds
cytotoxicity (ADCC, 51Cr release) on TGBC14TKB, human NK cells [4]: ≥ 15%

B2: human-chicken chimeric antibody #3 (antibody, human IgG1, kappa, V domains shown)
VH: AVTLDESGGGLQTPGGALSLVCKASGFTFSGYDMLWVRQAPGKGLEWVAGIGSTGGGTDYGAAVKGRATISRDNGQSTVRLQLNNLRAEDTATYYCAKVAGGCNSGYCRDSPGSIDAWGHGTEVIVSA
VL: AVTQQPASVSANPGETVKITCSGGGSRNYYGWYQQKSPGSVPVTVIYYDDQRPSNIPSRFSGALSGSTSTLTITGVQADDEAVYFCGSADSNTYEGSFGAGTTLTVLT
notes: Produced 'similarly' to human-chicken chimeric antibody #1 from chicken monoclonal antibody #3; also called human-chicken chimeric monoclonal antibody #3
binding result [5]: binds
cytotoxicity (ADCC, 51Cr release) on TGBC14TKB, human NK cells [4]: ≥ 15%

B3: mouse monoclonal antibody #5 (antibody, V domains shown)
VH: DAELVKPGASVKISCKASGYTFTDHSIHWVQQKPEQGLEWIGYISPGNGNIKYNEKFKGKATLTADKSSSTAYMQLNSLTSEDSAVYFCKRSLGRGGPYYFDYWGQGTTVTVSS
VL: DIVLTQAAPSLPVTPGESVSISCRSSKSLLHSNGNTYLYWFLQRPGQSPQLLIYRMSNLASGVPDRFSGSGSGTAFTLRISRVEAEDVGVYYCMQHREYPVTFGSGPN
notes: mouse hybridoma antibody; also called anti-CAPRIN-1 mouse monoclonal antibody #5; anti-CAPRIN-1 monoclonal antibody #5
rate of increase in mean fluorescence intensity over control [1]: ≥ 20%
binding result [2]: binds
binding result [6]: binds
cytotoxicity (ADCC, 51Cr release) on TGBC14TKB, human NK cells [4]: ≥ 15%

B4: human-chicken chimeric antibody #1 (antibody, human IgG1, kappa, V domains shown)
VH: AVTLDESGGGLQMSRGGLSLVCKASGFDFSSYQMNWIRQAPGKGLEFVAAINKFGNSTGHGAAVKGRVTISRDNGQSTVRLQLNNLRAEDTAIYFCTKHAYGYCGSGTWCAAGEIDAWGHGTEVIVSS
VL: QAASTQPSSVSANPGETVEITCSGGGSYSYGWFQQKSPGSAPVTVIYYNNKRPSDIPSRFSGSKSGSTGTLTITGVQADDEAVYYCGSGDSTDTAVFGAGTTLTVLG
notes: also called human-chicken chimeric monoclonal antibody #1
binding result [2]: binds
binding result [3]: binds
cytotoxicity (ADCC, 51Cr release) on TGBC14TKB, human NK cells [4]: 20%

B5: rabbit anti-CAPRIN-1 monoclonal antibody #1 (antibody, V domains shown)
VH: QSLEESGGDLVKPGASLTLTCTASGFSFSGSYYMSWVRQAPGKGLEWIAYIYIGDGVTAYANWAKGRFTISKASSTTVTLQMTSLTAADTATYFCARGNKLWGPGTLVTVSS
VL: DVVMTQTPASVEAAVGGTVTIKCQASQSISSYLAWYQQKPGQPPKRLIYDASNLDSGVPSRFKGSGSGTDFTITISDLECADAATYYCQCTAVSSATIYGNAFGGGTEVVVK
notes: rabbit hybridoma antibody
binding result [7]: binds

B6: human-rabbit chimeric anti-CAPRIN-1 antibody #1 (antibody, V domains shown)
VH: QSLEESGGDLVKPGASLTLTCTASGFSFSGSYYMSWVRQAPGKGLEWIAYIYIGDGVTAYANWAKGRFTISKASSTTVTLQMTSLTAADTATYFCARGNKLWGPGTLVTVSS
VL: DVVMTQTPASVEAAVGGTVTIKCQASQSISSYLAWYQQKPGQPPKRLIYDASNLDSGVPSRFKGSGSGTDFTITISDLECADAATYYCQCTAVSSATIYGNAFGGGTEVVVK
notes: also called human-rabbit chimeric anti-CAPRIN-1 monoclonal antibody #1
binding result [8]: binds

B7: mouse anti-CAPRIN-1 antibody #34 (antibody, V domains shown)
VH: GAELVRPGTSVKVSCKASVYAFTNYLIEWVKQRPGQGLEWIGVINPKSGGTKYNEKFRGKATLTADKSSSTAYMQLSSLTSGDSAVYFCAITGTDYWGQGTTLTVSS
VL: QGTRCDIQMTQTTSSLSASLGDRVTISCSASQGINNYLNWYQQKPDGTVKLLIYYTSSLRSGVPSRFSGSGSGTDYSLTISNLEPEDVATYYCQQYSKLPRTFGGGTKLEIKR
notes: mouse hybridoma antibody; also called mouse anti-CAPRIN-1 monoclonal antibody #34; mouse anti-CAPRN-1 antibody #34
binding result [9]: binds
increase in fluorescence intensity over control [10]: ≥ 35%
